The RNAGym collection of RNA variant scans (doi:10.1021/acssynbio.7b00057)

B1: Pistol ribozyme (parent)
chain: GGGUCGUUGUUCCAUAAUCGCGUGGAUAUGGCACGCAAGUUUCUACCGGGCACCGUAAAUGUCCGACUGGAGCCGUUCGGGCGGCUAUAAACAGACCUCAGGCCCGAAGCGUGGCGGCACCUGCCGCCGGUGGUAAAAAAGAUCGGAAGAGCACACGUCU

Variants of: B1
Assay: aptazyme ON/OFF ratio, guanine; higher = stronger switching; co-transcriptional cleavage with and without guanine

| Variant | aptazyme ON/OFF ratio |
| --- | --- |
| GGGUCGGCAAGAAAUAAUCGCGUGGAUAUGGCACGCAAGUUUCUACCGGGCACCGUAAAUGUCCGACUGGAGCCGUUCGGGCGGCUAUAAACAGACCUCAGGCCCGAAGCGUGGCGGCACCUGCCGCCGGUGGUAAAAAAGAUCGGAAGAGCACACGUCU [U7G U8C G9A U10A U11G C12A C13A] | 1.06 |
| GGGUCGGCAAGAUAUAAUCGCGUGGAUAUGGCACGCAAGUUUCUACCGGGCACCGUAAAUGUCCGACUGGAGCCGUUCGGGCGGCUAUAAACAGACCUCAGGCCCGAAGCGUGGCGGCACCUGCCGCCGGUGGUAAAAAAGAUCGGAAGAGCACACGUCU [U7G U8C G9A U10A U11G C12A C13U] | 1.09 |
| GGGUCGGCAAGAGAUAAUCGCGUGGAUAUGGCACGCAAGUUUCUACCGGGCACCGUAAAUGUCCGACUGGAGCCGUUCGGGCGGCUAUAAACAGACCUCAGGCCCGAAGCGUGGCGGCACCUGCCGCCGGUGGUAAAAAAGAUCGGAAGAGCACACGUCU [U7G U8C G9A U10A U11G C12A C13G] | 1.12 |
| GGGUCGGCAACGGAUAAUCGCGUGGAUAUGGCACGCAAGUUUCUACCGGGCACCGUAAAUGUCCGACUGGAGCCGUUCGGGCGGCUAUAAACAGACCUCAGGCCCGAAGCGUGGCGGCACCUGCCGCCGGUGGUAAAAAAGAUCGGAAGAGCACACGUCU [U7G U8C G9A U10A U11C C12G C13G] | 1.03 |
| GGGUCGGCAACGUAUAAUCGCGUGGAUAUGGCACGCAAGUUUCUACCGGGCACCGUAAAUGUCCGACUGGAGCCGUUCGGGCGGCUAUAAACAGACCUCAGGCCCGAAGCGUGGCGGCACCUGCCGCCGGUGGUAAAAAAGAUCGGAAGAGCACACGUCU [U7G U8C G9A U10A U11C C12G C13U] | 1.09 |
| GGGUCGGCAACGAAUAAUCGCGUGGAUAUGGCACGCAAGUUUCUACCGGGCACCGUAAAUGUCCGACUGGAGCCGUUCGGGCGGCUAUAAACAGACCUCAGGCCCGAAGCGUGGCGGCACCUGCCGCCGGUGGUAAAAAAGAUCGGAAGAGCACACGUCU [U7G U8C G9A U10A U11C C12G C13A] | 1.08 |
| GGGUCGGCAACGCAUAAUCGCGUGGAUAUGGCACGCAAGUUUCUACCGGGCACCGUAAAUGUCCGACUGGAGCCGUUCGGGCGGCUAUAAACAGACCUCAGGCCCGAAGCGUGGCGGCACCUGCCGCCGGUGGUAAAAAAGAUCGGAAGAGCACACGUCU [U7G U8C G9A U10A U11C C12G] | 1.13 |
| GGGUCGGCAACUCAUAAUCGCGUGGAUAUGGCACGCAAGUUUCUACCGGGCACCGUAAAUGUCCGACUGGAGCCGUUCGGGCGGCUAUAAACAGACCUCAGGCCCGAAGCGUGGCGGCACCUGCCGCCGGUGGUAAAAAAGAUCGGAAGAGCACACGUCU [U7G U8C G9A U10A U11C C12U] | 1.11 |
| GGGUCGGCAACACAUAAUCGCGUGGAUAUGGCACGCAAGUUUCUACCGGGCACCGUAAAUGUCCGACUGGAGCCGUUCGGGCGGCUAUAAACAGACCUCAGGCCCGAAGCGUGGCGGCACCUGCCGCCGGUGGUAAAAAAGAUCGGAAGAGCACACGUCU [U7G U8C G9A U10A U11C C12A] | 1.31 |
| GGGUCGGCAAGGUAUAAUCGCGUGGAUAUGGCACGCAAGUUUCUACCGGGCACCGUAAAUGUCCGACUGGAGCCGUUCGGGCGGCUAUAAACAGACCUCAGGCCCGAAGCGUGGCGGCACCUGCCGCCGGUGGUAAAAAAGAUCGGAAGAGCACACGUCU [U7G U8C G9A U10A U11G C12G C13U] | 1.09 |
| GGGUCGGCAAGGGAUAAUCGCGUGGAUAUGGCACGCAAGUUUCUACCGGGCACCGUAAAUGUCCGACUGGAGCCGUUCGGGCGGCUAUAAACAGACCUCAGGCCCGAAGCGUGGCGGCACCUGCCGCCGGUGGUAAAAAAGAUCGGAAGAGCACACGUCU [U7G U8C G9A U10A U11G C12G C13G] | 1.14 |
| GGGUCGGCAAGGAAUAAUCGCGUGGAUAUGGCACGCAAGUUUCUACCGGGCACCGUAAAUGUCCGACUGGAGCCGUUCGGGCGGCUAUAAACAGACCUCAGGCCCGAAGCGUGGCGGCACCUGCCGCCGGUGGUAAAAAAGAUCGGAAGAGCACACGUCU [U7G U8C G9A U10A U11G C12G C13A] | 1.08 |
| GGGUCGGCAAGACAUAAUCGCGUGGAUAUGGCACGCAAGUUUCUACCGGGCACCGUAAAUGUCCGACUGGAGCCGUUCGGGCGGCUAUAAACAGACCUCAGGCCCGAAGCGUGGCGGCACCUGCCGCCGGUGGUAAAAAAGAUCGGAAGAGCACACGUCU [U7G U8C G9A U10A U11G C12A] | 1.06 |
| GGGUCGGCAAGGCAUAAUCGCGUGGAUAUGGCACGCAAGUUUCUACCGGGCACCGUAAAUGUCCGACUGGAGCCGUUCGGGCGGCUAUAAACAGACCUCAGGCCCGAAGCGUGGCGGCACCUGCCGCCGGUGGUAAAAAAGAUCGGAAGAGCACACGUCU [U7G U8C G9A U10A U11G C12G] | 1.19 |
| GGGUCGGCAAGUCAUAAUCGCGUGGAUAUGGCACGCAAGUUUCUACCGGGCACCGUAAAUGUCCGACUGGAGCCGUUCGGGCGGCUAUAAACAGACCUCAGGCCCGAAGCGUGGCGGCACCUGCCGCCGGUGGUAAAAAAGAUCGGAAGAGCACACGUCU [U7G U8C G9A U10A U11G C12U] | 1.26 |
| GGGUCGGCAACAGAUAAUCGCGUGGAUAUGGCACGCAAGUUUCUACCGGGCACCGUAAAUGUCCGACUGGAGCCGUUCGGGCGGCUAUAAACAGACCUCAGGCCCGAAGCGUGGCGGCACCUGCCGCCGGUGGUAAAAAAGAUCGGAAGAGCACACGUCU [U7G U8C G9A U10A U11C C12A C13G] | 1.25 |
| GGGUCGGCAACAUAUAAUCGCGUGGAUAUGGCACGCAAGUUUCUACCGGGCACCGUAAAUGUCCGACUGGAGCCGUUCGGGCGGCUAUAAACAGACCUCAGGCCCGAAGCGUGGCGGCACCUGCCGCCGGUGGUAAAAAAGAUCGGAAGAGCACACGUCU [U7G U8C G9A U10A U11C C12A C13U] | 1.13 |
| GGGUCGGCAACAAAUAAUCGCGUGGAUAUGGCACGCAAGUUUCUACCGGGCACCGUAAAUGUCCGACUGGAGCCGUUCGGGCGGCUAUAAACAGACCUCAGGCCCGAAGCGUGGCGGCACCUGCCGCCGGUGGUAAAAAAGAUCGGAAGAGCACACGUCU [U7G U8C G9A U10A U11C C12A C13A] | 1.13 |
